Values belong to the binder of their own block, whether it stands above or below them. Where no end group is shown, it is not given here.
Experiments:
SP-5 = experiment: Affinity selection MS
SP-44 = experiment: Affinity selection MS
GST-HDMX = molecular target: T1, GST-HDMX (human (HDMX), UniProt O15151 1-134); experiment: Competition ELISA
T1 chain: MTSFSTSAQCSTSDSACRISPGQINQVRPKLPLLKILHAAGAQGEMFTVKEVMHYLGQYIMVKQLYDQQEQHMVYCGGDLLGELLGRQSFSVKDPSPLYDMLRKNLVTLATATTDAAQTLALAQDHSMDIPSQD

Kd (SP-5): 90 nM
Kd (SP-44): 180 nM
B1: GST-hDMX (other)
chain: T1 chain

IC50 (GST-HDMX): 175 nM
Binder: QSQQTFANLWRLLAQN (not fully specified (residues 7, 14, N-terminus, C-terminus, bridges)) [peptide 46 (Table 9), Ac-QSQQTF%r8NLWRLL%QN-NH2]

Kd (SP-5): 25 nM
Kd (SP-44): 25 nM
B2: GST-hDM2 (other)
chain: MCNTNMSVPTDGAVTTSQIPASEQETLVRPKPLLLKLLKSVGAQKDTYTMKEVLFYLGQYIMTKRLYDEKQQHIVYCSNDLLGDLFGVPSFSVKEHRKIYTMIYRNLVVVNQQESSDSGTSVSENRCHLEGGSDQKDL
